Source: patent EP2072528A1 (Labeit, a person, dated 2009)
One block for each binder: values may come before it.

B1: human MuRF1 polypeptide (muscle ring finger 1), full length (enzyme)
chain: MENLEKQLICPICLEMFTKPVVILPCQHNLCRKCANDIFQAANPYWTSRGSSVSMSGGRFRCPTCRHEVIMDRHGVYGLQRNLLVENIIDIYKQECSSRPLQKGSHPMCKEHEDEKINIYCLTCEVPTCSMCKVFGIHKACEVAPLQSVFQGQKTELNNCISMLVAGNDRVQTIITQLEDSRRVTKENSHQVKEELSQKFDTLYAILDEKKSELLQRITQEQEEKLSFIEALIQQYQEQLDKSTKLVETAIQSLDEPGGATFLLTAKQLIKSIVEASKGCQLGKTEQGFENMDFFTLDLEHIADALRAIDFGTDEEEEEFIEEEDQEEEESTEGKEEGHQ
notes: Full length bait in the yeast two-hybrid screens; also called TRIM63; RNF28

What was measured:
[1] = biological target: ENO3 (NP_443739.2) (human, UniProt P13929 1-434, limits assumed); experiment: yeast two-hybrid
[2] = biological target: T1, sequestosome-1 (NP_003891.1) (human, UniProt Q13501 1-440, limits assumed); experiment: yeast two-hybrid, full length bait
T1 construct: also called SQSTM1

[3] = biological target: T2, EEF1G (NP_001395.1) (human, UniProt P26641 1-437, limits assumed); experiment: yeast two-hybrid, full length bait
T2 construct: also called translation initiation factor EEF1G

[4] = biological target: B1; experiment: yeast two-hybrid
[5] = biological target: B1; experiment: yeast two-hybrid, full length bait

Sequence of ENO3 (NP_443739.2) (P13929 whole entry): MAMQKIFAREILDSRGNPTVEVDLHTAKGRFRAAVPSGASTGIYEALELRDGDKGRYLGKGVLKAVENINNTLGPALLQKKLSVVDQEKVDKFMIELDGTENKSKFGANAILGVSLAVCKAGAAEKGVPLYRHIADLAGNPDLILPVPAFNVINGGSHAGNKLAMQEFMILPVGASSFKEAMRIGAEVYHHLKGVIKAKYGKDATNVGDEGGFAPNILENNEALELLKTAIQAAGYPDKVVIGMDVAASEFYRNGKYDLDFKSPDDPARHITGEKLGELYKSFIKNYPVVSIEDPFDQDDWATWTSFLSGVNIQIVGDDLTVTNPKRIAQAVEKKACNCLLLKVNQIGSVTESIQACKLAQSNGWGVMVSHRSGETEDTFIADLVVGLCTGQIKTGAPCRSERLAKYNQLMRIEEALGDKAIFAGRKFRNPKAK
T2 sequence (P26641 whole entry): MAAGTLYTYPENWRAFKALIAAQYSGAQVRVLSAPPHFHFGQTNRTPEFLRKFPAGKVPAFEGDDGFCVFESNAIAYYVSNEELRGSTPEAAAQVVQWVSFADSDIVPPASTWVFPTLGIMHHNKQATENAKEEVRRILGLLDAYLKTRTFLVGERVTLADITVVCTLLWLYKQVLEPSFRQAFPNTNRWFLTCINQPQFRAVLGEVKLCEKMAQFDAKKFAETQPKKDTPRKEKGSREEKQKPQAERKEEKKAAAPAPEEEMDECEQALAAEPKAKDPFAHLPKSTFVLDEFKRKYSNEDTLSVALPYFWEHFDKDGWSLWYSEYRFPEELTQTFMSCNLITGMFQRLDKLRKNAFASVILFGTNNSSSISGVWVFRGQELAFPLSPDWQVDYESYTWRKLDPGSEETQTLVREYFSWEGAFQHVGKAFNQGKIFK

Binder: B1
binding result [1]: binds
binding result [2]: binds
binding result [3]: binds

binding result [4]: binds
B2: FABP4 (NP_001433.1) (other, human, UniProt P15090 1-132, looked up)
chain: MCDAFVGTWKLVSSENFDDYMKEVGVGFATRKVAGMAKPNMIISVNGDVITIKSESTFKNTEISFILGQEFDEVTADDRKVKSTITLDGGVLVHVQKWDGKSTTIKRKREDDKLVVECVMKGVTSTRVYERA

binding result [5]: binds
B3: FHL2 (NP_963851.2) (other, human, UniProt Q14192 1-279, looked up)
chain: MTERFDCHHCNESLFGKKYILREESPYCVVCFETLFANTCEECGKPIGCDCKDLSYKDRHWHEACFHCSQCRNSLVDKPFAAKEDQLLCTDCYSNEYSSKCQECKKTIMPGTRKMEYKGSSWHETCFICHRCQQPIGTKSFIPKDNQNFCVPCYEKQHAMQCVQCKKPITTGGVTYREQPWHKECFVCTACRKQLSGQRFTARDDFAYCLNCFCDLYAKKCAGCTNPISGLGGTKYISFEERQWHNDCFNCKKCSLSLVGRGFLTERDDILCPDCGKDI
